The target of series [1] is T1, lysozyme (UniProt P00698 19-147). As to the kind of experiment: resonance light scattering; 10 mM Tris pH 7.4, 2.0 uM methyl violet (duplex sensor), target binding 20 min at 37 °C; salt not stated. The note with it: protein: commercial.
Series [2] concerns the target T1, lysozyme. As to the kind of experiment: resonance light scattering; 2.0 uM methyl violet; lysozyme said to open the duplex and bind Lapt; 10 mM Tris pH 7.4, 2.0 uM methyl violet (duplex sensor), target binding 20 min at 37 °C; salt not stated. Conditions: protein: commercial; blunt.
The next series has as its target T2, papain (UniProt P00784 134-345).
T2 sequence: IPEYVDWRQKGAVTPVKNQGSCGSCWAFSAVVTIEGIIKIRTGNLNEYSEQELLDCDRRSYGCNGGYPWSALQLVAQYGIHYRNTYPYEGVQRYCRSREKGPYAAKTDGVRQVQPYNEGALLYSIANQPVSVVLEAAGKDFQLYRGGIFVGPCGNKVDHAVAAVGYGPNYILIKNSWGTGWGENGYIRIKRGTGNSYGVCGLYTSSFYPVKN
The series is described as follows: resonance light scattering; 2.0 uM methyl violet; 100-fold excess; 10 mM Tris pH 7.4, 2.0 uM methyl violet (duplex sensor), target binding 20 min at 37 °C; salt not stated. The note with it: protein: commercial; blunt.

The next series has as its target ovalbumin (UniProt P01012 2-386). Described as above. The note with it: protein: commercial; blunt.
Another series concerns the target thrombin (UniProt P00734;P00734 328-363;364-622). Described as above.

T1 sequence (P00698 19-147): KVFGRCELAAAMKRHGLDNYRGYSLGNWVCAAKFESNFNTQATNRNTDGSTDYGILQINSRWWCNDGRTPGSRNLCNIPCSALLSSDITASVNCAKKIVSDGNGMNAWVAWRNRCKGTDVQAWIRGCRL
Chain of ovalbumin (P01012 2-386): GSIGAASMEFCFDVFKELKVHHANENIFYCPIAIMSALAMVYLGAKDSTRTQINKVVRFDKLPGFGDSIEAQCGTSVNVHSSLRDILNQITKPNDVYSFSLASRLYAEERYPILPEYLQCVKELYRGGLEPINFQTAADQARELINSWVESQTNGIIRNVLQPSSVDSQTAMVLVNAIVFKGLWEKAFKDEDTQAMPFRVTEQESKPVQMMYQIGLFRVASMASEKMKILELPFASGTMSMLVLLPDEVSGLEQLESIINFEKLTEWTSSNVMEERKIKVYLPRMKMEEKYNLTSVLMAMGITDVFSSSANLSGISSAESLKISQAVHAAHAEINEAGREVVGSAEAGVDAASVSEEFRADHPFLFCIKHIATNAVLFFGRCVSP

B1: Lapt (lysozyme aptamer) (ssDNA)
DNA: ATCTACGAATTCATCAGGGCTAAAGAGTGCAGAGTTACTTAGACCTTCCTCCGCAATACTCCCCCAGGTT
As for B1, the binding result in the series with lysozyme [1] is “binds”.

B2: Lapt≈Aapt duplex (with methyl violet) (dsDNA)
DNA 1: B1 DNA
DNA 2: AACCTGGGGGAGTATTGCGGAGGAAGGTCTAAGTAACTCTGCACTCTTTAGCCCTGATGAATTCGTAGAT
Take B2: the binding result is “binds” with lysozyme [2], “no binding” with papain, “no binding” with ovalbumin and “no binding” with thrombin.

Source of the values: article PMC4705532, ““Click on the bidirectional switch”: the aptasensor for simultaneous detection of lysozyme and ATP with high sensitivity and high selectivity”.
